From patent publication US20090235392A1 (PIONEER HI BRED INTERNATIONAL, published 2009)

Molecular target: T1, GAL4BD:CKI2(590-922) (Arabidopsis thaliana)
T1 construct: Yeast two-hybrid bait; Any linker or tag from the vector is not described; also called AT-CKI2(590-922); pRM430
Assay: yeast two-hybrid
From the text: Clones representing two independent genes, ARABIDOPSIS HISTIDINE PHOSPHOTRANSFER PROTEIN 3 (AHP3, At5G39340) and At3G28690, a putative serine/threonine protein kinase, were identified from the library screen with GAL4BD:CKI2(590-922). AHPs are the described signaling targets of canonical receptor histidine kinases, such as CRE1, AHK1 and ETR1 (Grefen and Harter, 2004). […] At3G28690 is homologous to the previously published ARABIDOPSIS PROTEIN KINASE 1 (APK1) (Hirayama and Oka, 1992) and APK2 (Ito, et al., 1997) and is designated APK3. […] APK3 has been classified as a Receptor Like Cytoplasmic Kinase (RLCK) VII (Family 1.2.2) in Arabidopsis. […] Its use in modulation of cytokinin-dependent growth responses is being pursued through both transgenic and mutant analysis.
The yeast two-hybrid assays discussed in Example 1 were conducted as follows. Polyadenylated mRNA was isolated from Arabidopsis aerial tissue using a FastTrack™ mRNA kit (Invitrogen, Carlsbad, Calif., USA). First strand cDNA was created using a cDNA synthesis kit (Stratagene, La Jolla, Calif., USA), subsequently cloned into pGADT7 (Clontech, Palo Alto, Calif., USA), and the cDNA library was transformed into the yeast strain AH109 (Clontech).

| binding result | Binder |
| --- | --- |
| no binding | APK3(115-476) (other, Second truncated APK3 tested as a fusion protein in the two-hybrid assay; also called second truncated APK3 protein; At3G28690; not shown: two-hybrid fusion partner) MFNDLKLATRNFRPESLLGEGGFGCVFKGWIEENGTAPVKPGTGLTVAVKTLNPDGLQGHKEWLAEINFLGNLVHPSLVKLVGYCMEEDQRLLVYEFMPRGSLENHLFRRTLPLPWSVRMKIALGAAKGLAFLHEEAEKPVIYRDFKTSNILLDGEYNAKLSDFGLAKDAPDEKKSHVSTRVMGTYGYAAPEYVMTGHLTTKSDVYSFGVVLLEILTGRRSVDKSRPNGEQNLVEWVRPHLLDKKRFYRLLDPRLEGHYSIKGAQKATQVAAQCLNRDSKARPKMSEVVEALKPLPNLKDFASSSSSFQTMQPVAKNGVRTQGGGFVSRNGPPMRSLSSLNLPQASPYRYARQSPKPKGKEP |
| no binding | full-length APK3 fusion protein (other, Full-length APK3 tested as a fusion protein in the two-hybrid assay; also called AtAPK3; At3G28690; not shown: two-hybrid fusion partner) MATKLESFKVVEKLGVEKGEKGKMMSKKKNVKKDGDESESGFWFRFKFIFSCISSRSKVDSSMNATAVIAEPKKVIEKLEGHPAPTKDTGCAESGSSTPLMSGELKYSSKLRIFMFNDLKLATRNFRPESLLGEGGFGCVFKGWIEENGTAPVKPGTGLTVAVKTLNPDGLQGHKEWLAEINFLGNLVHPSLVKLVGYCMEEDQRLLVYEFMPRGSLENHLFRRTLPLPWSVRMKIALGAAKGLAFLHEEAEKPVIYRDFKTSNILLDGEYNAKLSDFGLAKDAPDEKKSHVSTRVMGTYGYAAPEYVMTGHLTTKSDVYSFGVVLLEILTGRRSVDKSRPNGEQNLVEWVRPHLLDKKRFYRLLDPRLEGHYSIKGAQKATQVAAQCLNRDSKARPKMSEVVEALKPLPNLKDFASSSSSFQTMQPVAKNGVRTQGGGFVSRNGPPMRSLSSLNLPQASPYRYARQSPKPKGKEP |
